In patent US20230288411A1, “POLYPEPTIDE, MULTIMER, SOLID PHASE, MEASUREMENT METHOD FOR TEST SUBSTANCE, AND REAGENT KIT” (SYSMEX CORPORATION, priority 2020, published 2023):
Entries after “also recorded” stand apart in the source; their conditions may differ.

Key:
L-biotin-labeled albumin = test: SPR (Biacore T200) binding evaluation to L-biotin-labeled albumin; design: species or system bovine; conditions: analyte flowed at 30 μL/min up to 100 nM, single cycle method, albumin immobilized on sensor chip
Procedure: (§1) A binding ability of D-streptavidin obtained in Example 1 to D-biotin as a natural form and L-biotin as an optical isomer of D-biotin was evaluated by an intermolecular interaction analyzer (Biacore T200) using SPR as a measurement principle.
Similarly, L-biotin-labeled albumin was prepared using L-biotin-AC5-OSu [see (Amidation of L-biotin) described in Example 3 above].
Bovine serum albumin was immobilized on flow cells 1 and 3 of a CMS sensor chip (manufactured by Cytiva) of a Biacore T200 system at a target level of 400 RU by an amine coupling method with an amine coupling kit (Cytiva). Further, L-biotin-labeled albumin and D-biotin-labeled albumin were immobilized at a target level of 400 RU to flow cells 2 and 4, respectively, similarly by an amine coupling method. Blocking was performed in each flow cell with 1 M ethanolamine solution, pH 8.5 (manufactured by Cytiva). […]
(§2) Using HBS-EP+(manufactured by Cytiva) as a running buffer, the prepared D-tamavidin (trademark) 2 was flowed into each flow cell at a flow rate of 30 μL/min in the range of 100 pM to 100 nM by a single cycle method, and binding and dissociation to D-biotin or L-biotin was evaluated by Biacore T200 Evaluation Software (manufactured by Cytiva).

D-biotin-labeled albumin = test: SPR (Biacore T200) binding evaluation to D-biotin-labeled albumin; design: species or system bovine; conditions: analyte flowed at 30 μL/min up to 100 nM, single cycle method, albumin immobilized on sensor chip
Procedure: as §1
An N,N-dimethylformamide solution (16.3 μL) containing 10 mg/mL D-biotin-AC5-OSu (manufactured by DOJINDO LABORATORIES) was added to 2.8 mL of 50 mg/mL bovine serum albumin/0.1 M phosphate buffer solution (pH 7.5), and the mixture was stirred, then allowed to stand at 35° C. for 1 hour. Thereafter, desalting was performed by PD-10 (17085101, manufactured by Cytiva) equilibrated with a 0.1 M phosphate buffer (pH 7.5), and D-biotin-labeled albumin was recovered. The number of labeled D-biotin per molecule of albumin by HABA method was 0.4.
Bovine serum albumin was immobilized on flow cells 1 and 3 of a CMS sensor chip (manufactured by Cytiva) of a Biacore T200 system at a target level of 400 RU by an amine coupling method with an amine coupling kit (Cytiva). […]
as §2

B1: D-tamavidin (trademark) 2: avidin-like protein derived from Pleurotus cornucopiae consisting of D amino acids, 2nd to 141st amino acid sequence of SEQ ID NO: 4 (peptide, listed as Pleurotus cornucopiae)
chain: SDVQSSLTGTWYNELNSKMELTANKDGTLTGKYLSKVGDVYVPYPLSGRYNLQPPAGQGVALGWAVSWENSKIHSATTWSGQFFSESSPVILTQWLLSSSTARGDVWESTLVGNDSFTKTAPTEQQIAHAQLHCRAPRLK
modifications: D-amino acids
With B1 the “binding to L-biotin-labeled albumin (SPR sensorgram)” value (L-biotin-labeled albumin) was “increase in the SPR signal was observed; also recorded: binds” and the “binding to D-biotin-labeled albumin (SPR sensorgram)” value (D-biotin-labeled albumin) was “No increase in SPR signal; also recorded: does not substantially bind”.
